These results are taken from patent US20090142365A1 (HEALTH RESEARCH, published 2009).

The target in the assay is Luciferase (UniProt P08659 1-550 = luciferase, limits assumed). The assay can be described thus: pull-down: 1:1 mix, immunoprecipitation with anti-OVA antibody, western blot with anti-luciferase antibody. As for the experimental part: Lanes with no chaperone (1st lane) were included as controls. […] In the bottom panel, WB was performed with anti-luciferase to confirm that OVA pull-down was successful.
After SDS-PAGE (10%) electrophoresis, western blot analysis was performed using anti-luciferase (Promega, Madison, Wis.) or anti-gp100 antibody (Santa Cruz Biotechnology, Santa Cruz, Calif.).

Luciferase, sequence (P08659 whole entry): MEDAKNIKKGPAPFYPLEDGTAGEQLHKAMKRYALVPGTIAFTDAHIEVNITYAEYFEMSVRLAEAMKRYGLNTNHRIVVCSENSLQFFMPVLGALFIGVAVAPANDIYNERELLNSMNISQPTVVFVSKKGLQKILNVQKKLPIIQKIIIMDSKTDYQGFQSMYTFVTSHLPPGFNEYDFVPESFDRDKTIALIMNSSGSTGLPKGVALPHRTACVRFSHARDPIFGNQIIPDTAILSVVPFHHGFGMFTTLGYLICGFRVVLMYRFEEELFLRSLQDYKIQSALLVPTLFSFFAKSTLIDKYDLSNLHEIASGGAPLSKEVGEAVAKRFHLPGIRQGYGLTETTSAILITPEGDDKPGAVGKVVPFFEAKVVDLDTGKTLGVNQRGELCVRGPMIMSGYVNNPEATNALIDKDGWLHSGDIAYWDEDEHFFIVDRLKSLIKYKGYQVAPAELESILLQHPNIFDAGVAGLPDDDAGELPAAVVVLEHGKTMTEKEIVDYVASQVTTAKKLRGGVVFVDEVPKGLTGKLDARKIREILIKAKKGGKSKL

B1: Ovalbumin (other, UniProt P01012 2-386, looked up)
chain: GSIGAASMEFCFDVFKELKVHHANENIFYCPIAIMSALAMVYLGAKDSTRTQINKVVRFDKLPGFGDSIEAQCGTSVNVHSSLRDILNQITKPNDVYSFSLASRLYAEERYPILPEYLQCVKELYRGGLEPINFQTAADQARELINSWVESQTNGIIRNVLQPSSVDSQTAMVLVNAIVFKGLWEKAFKDEDTQAMPFRVTEQESKPVQMMYQIGLFRVASMASEKMKILELPFASGTMSMLVLLPDEVSGLEQLESIINFEKLTEWTSSNVMEERKIKVYLPRMKMEEKYNLTSVLMAMGITDVFSSSANLSGISSAESLKISQAVHAAHAEINEAGREVVGSAEAGVDAASVSEEFRADHPFLFCIKHIATNAVLFFGRCVSP
notes: Negative control protein
In the case of B1, the binding result is on record as “no binding”.
